The target of test [1] is T1, human PD-L1 on PD-L1 positive Raji cells (human, UniProt Q9NZQ7 19-290).
T1 construct: whole, on cells; also called cell surface PD-L1; PD-L1+ cells
Kind of test: flow cytometry on PD-L1 positive Raji cells, AF633 anti-human Fc detection.

Test [2] deals with T2, human PD-L1 protein (soluble) (human, UniProt Q9NZQ7 19-238, limits assumed).
T2 construct: also called soluble PD-L1
As to the kind of experiment: ELISA, human PD-L1 coated on the plate, anti-human Fc HRP detection. On the technique in general: In an ELISA, binding on a coated surface is turned into a signal by an enzyme label.

In test [3] the target is T3, human CD73 protein (soluble) (human, UniProt P21589 27-549, limits assumed).
T3 construct: its species is not restated there; also called soluble CD73; 5'-nucleotidase
T3 sequence (looked up): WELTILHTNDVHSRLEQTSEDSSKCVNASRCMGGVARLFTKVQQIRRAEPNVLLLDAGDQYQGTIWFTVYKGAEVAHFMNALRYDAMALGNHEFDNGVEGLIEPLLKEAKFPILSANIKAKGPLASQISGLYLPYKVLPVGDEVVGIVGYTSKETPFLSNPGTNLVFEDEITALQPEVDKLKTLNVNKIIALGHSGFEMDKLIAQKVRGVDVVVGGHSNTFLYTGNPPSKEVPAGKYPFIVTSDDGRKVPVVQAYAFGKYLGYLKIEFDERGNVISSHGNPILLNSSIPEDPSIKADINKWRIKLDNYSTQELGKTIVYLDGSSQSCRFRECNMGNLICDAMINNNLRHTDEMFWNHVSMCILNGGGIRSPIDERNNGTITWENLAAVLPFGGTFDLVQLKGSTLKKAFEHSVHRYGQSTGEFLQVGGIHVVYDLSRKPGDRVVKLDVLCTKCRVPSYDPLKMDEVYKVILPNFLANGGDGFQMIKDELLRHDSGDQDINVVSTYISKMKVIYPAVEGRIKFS
As to the kind of experiment: ELISA, human CD73 coated on the plate, anti-human Fc HRP detection. The method, then:
Plated were coated with 100 μl of 1 μg/ml human CD73 protein overnight. The samples were blocked with 1% BSA in PBST for 1 hr, washed with PBST 3×. […] Binding with anti-hu Fc HRP was at 1:10000 in PBST, RT for 30 min, wash with PBST 3×. 100 μl of TMB and 100 μl of HCl were then added.

Test [4] concerns the target T4, CD73 on the surface of A375 cells (UniProt P21589 27-549, limits assumed).
T4 construct: whole, on cells; also called cell surface CD73
T4 sequence (looked up): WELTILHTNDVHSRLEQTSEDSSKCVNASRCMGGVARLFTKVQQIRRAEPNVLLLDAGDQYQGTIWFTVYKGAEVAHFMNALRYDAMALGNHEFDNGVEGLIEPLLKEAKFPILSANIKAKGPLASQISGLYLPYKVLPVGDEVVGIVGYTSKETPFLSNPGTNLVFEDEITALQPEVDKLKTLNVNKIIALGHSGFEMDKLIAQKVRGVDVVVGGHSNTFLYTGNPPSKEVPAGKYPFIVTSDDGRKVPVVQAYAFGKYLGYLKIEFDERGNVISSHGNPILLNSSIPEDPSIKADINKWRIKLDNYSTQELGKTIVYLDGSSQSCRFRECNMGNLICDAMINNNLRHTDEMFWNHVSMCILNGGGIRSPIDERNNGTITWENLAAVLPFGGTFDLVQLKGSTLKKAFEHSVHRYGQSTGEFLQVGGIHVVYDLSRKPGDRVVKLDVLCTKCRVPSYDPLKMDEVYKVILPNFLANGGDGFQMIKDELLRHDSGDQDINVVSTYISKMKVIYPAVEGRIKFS
As to the kind of experiment: flow cytometry on A375 cells, AF633 anti-human Fc detection. The procedure: A375 cells that constitutively expressed CD73 on the surface were used in this example. 1×10⁵ A375 cells/well were suspended in FACS buffer. Antibodies diluted from 10 nM by 2-fold, 100 μl into each well, 4° C. for 30 min. The samples were washed with FACS buffer for 1×. AF633-anti hu Fc was added for binding for 30 min at 4° C., and washed with FACS buffer for 1×.
On the technique in general: A flow cytometer gives signals particle by particle.

T1 sequence (Q9NZQ7 19-290): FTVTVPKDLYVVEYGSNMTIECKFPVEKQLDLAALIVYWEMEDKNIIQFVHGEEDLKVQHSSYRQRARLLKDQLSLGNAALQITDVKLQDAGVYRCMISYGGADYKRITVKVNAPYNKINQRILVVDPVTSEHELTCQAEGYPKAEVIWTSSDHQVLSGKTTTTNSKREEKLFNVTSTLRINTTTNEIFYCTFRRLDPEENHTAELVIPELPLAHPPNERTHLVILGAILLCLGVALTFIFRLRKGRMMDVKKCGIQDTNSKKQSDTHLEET
T2 sequence (Q9NZQ7 19-238 limits assumed): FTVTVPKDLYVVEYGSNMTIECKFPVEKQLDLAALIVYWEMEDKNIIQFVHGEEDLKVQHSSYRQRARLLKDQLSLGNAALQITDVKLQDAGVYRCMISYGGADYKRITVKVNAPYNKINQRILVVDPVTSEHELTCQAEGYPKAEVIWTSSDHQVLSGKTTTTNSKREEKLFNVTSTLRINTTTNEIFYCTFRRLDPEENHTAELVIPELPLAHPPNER

B1: H12(PDL1) (monospecific anti-PD-L1 antibody with the H12 VH and H12 VL) (antibody, V domains shown)
VH: EVQLVESGGGLVQPGGSLRLSCAASGFTFSSYDMSWVRQAPGKSLEWVATISDAGGYIYYRDSVKGRFTISRDNAKNSLYLQMNSLRDEDTAVYICARELPWRYALDYWGQGTTVTVSS
VL: DIQMTQSPSSLSASVGDRVTITCKASQDVTPAVAWYQQKPGKAPKLLIYSTSSRYTGVPSRFSGSGSGTDFTFTISSLQPEDIATYYCQQHYTTPLTFGQGTKLEIK
notes: it was detected with anti-human Fc; also called PD-L1 antibody H12
B1: the binding result in test [1] and in test [2] was “binds” throughout.

B2: hu309 (monospecific anti-CD73 antibody with the 309 VH and 309 VL) (antibody, V domains shown)
VH: EVQLQESGPGLVKPSETLSLTCAVSGYSITSGYYWNWIRQPPGKKLEWMGYINYGGSNGYNPSLKSRITISRDTSKNQFSLKLSSVTAADTAVYYCARDYDAYYEALDDWGQGTTVTVSS
VL: EIVLSQSPATLSLSPGERATLSCRASSRVNYMHWYQQKPGQSPRPWISATSNLASGVPARFSGSGSGTSYTLTISSLEPEDFAVYYCQQWSSNPPTFGGGTKVEIK
notes: it was detected with anti-human Fc
Consider B2, for which the binding result in test [3] and in test [4] was “binds” throughout.

The values above are taken from US20200347146A1 (I MAB BIOPHARMA US, published 2020).
